From patent US20030211537A1 (ARCH DEVELOPMENT, published 2003)
Starred links: 1 amine or outer side, 2 acyl side, 3 side chain; linkers in the order of their positions; H or OH if unused. Non-standard residues stand in square brackets, D forms with d. No end group written: not given here. Tyr(125I) = 125I-labelled Tyr, O=C([C@H](Cc1ccc(O[*:3])c([125I])c1)N[*:1])[*:2]

B1: dynorphin (form not specified) (peptide, UniProt P01213 207-223, looked up)
peptide: YGGFLRRIRPKLKWDNQ
B2: β-Endorphin (human) (peptide, UniProt P01189 237-267, looked up)
peptide: YGGFMTSEKSQTPLVTLFKNAIIKNAYKKGE
modifications: also: 125I-labelled where used as radioligand, site not given here
notes: domain: β-Endorphin; also called beta-endorphin
B3: [125I-Tyr11] SRIF (peptide, UniProt P61278 103-116, looked up)
peptide: AGCKNFFWKT[Tyr(125I)]TSC
modifications: ends and bridges not checked
B4: CTOP (D-Phe-Cys-Tyr-D-Trp-Orn-Thr-Pen-Thr-NH2) (peptide)
peptide: FCYWXTXT
modifications: D-Phe at 1, D-Trp at 4, Orn at 5 (printed Om), Pen at 7, C-terminal NH2; X in the letters stands for Orn 5 and Pen 7
B5: des-Tyr1-β-endorphin (peptide, UniProt P01189 238-267, looked up)
peptide: GGFMTSEKSQTPLVTLFKNAIIKNAYKKGE
notes: domain: des-Tyr1-β-endorphin; also called des-Tyrl-β-endorphin
B6: Met-enkephalin (peptide, UniProt P01210 100-104, looked up)
peptide: YGGFM
notes: domain: Met-enkephalin

Assays:
[1] = target: T1, κ1-78/δ70-372 chimeric opioid receptor (mouse); assay: competition vs [3H]naloxone, COS-7 membranes
T1 construct: Expressed in COS-7 cells, membranes assayed
T1 chain: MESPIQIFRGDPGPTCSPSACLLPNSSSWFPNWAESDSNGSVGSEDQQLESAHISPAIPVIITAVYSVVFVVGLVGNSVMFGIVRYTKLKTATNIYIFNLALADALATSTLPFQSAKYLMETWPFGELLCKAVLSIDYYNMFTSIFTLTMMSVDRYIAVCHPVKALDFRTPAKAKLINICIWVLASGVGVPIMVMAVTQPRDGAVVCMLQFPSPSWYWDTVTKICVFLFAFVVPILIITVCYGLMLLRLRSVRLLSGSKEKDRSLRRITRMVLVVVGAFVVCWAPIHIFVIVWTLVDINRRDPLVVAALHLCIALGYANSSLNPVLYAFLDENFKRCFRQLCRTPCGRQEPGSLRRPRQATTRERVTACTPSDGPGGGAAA
Method: The homogenate is centrifuged at 48,000×g for 20 min at 4° C. and the pellet resuspended in Buffer 1 and used in the radioligand binding assay. […] All radioligands were obtained from NEN/Dupont (Boston, Mass.). […] The binding reaction is terminated by the addition of ice-cold 50 mM Tris-HCL (pH 7.8) and rapid filtration over Whatman GF/B glass fiber filters that were pretreated with 0.5% polyethleneimine and 0.1% bovine serum albumin. The filters were washed with 12 ml of ice-cold buffer and soaked overnight in scintillation fluid. The bound radioactivity was determined using a scintillation counter.

rat µ opioid receptor = target: T2, rat µ opioid receptor (rat, UniProt P33535 1-398); assay: competition vs [3H]DAMGO, COS-7 membranes
T2 construct: whole, on cells; Assayed in membranes of transfected COS-7 cells; also called cloned µ receptor; rat µ receptor
T2 sequence (P33535 whole entry): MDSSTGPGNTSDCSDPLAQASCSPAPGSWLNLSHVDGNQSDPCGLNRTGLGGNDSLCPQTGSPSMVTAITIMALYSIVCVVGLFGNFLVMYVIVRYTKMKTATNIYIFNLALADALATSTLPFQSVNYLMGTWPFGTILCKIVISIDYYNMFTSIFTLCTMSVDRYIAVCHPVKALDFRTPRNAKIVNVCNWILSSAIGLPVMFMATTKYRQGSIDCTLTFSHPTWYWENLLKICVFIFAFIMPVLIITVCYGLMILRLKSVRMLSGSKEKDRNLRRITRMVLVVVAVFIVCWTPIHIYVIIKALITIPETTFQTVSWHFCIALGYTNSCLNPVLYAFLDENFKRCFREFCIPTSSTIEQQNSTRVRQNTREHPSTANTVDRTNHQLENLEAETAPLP
Method: (§1) Receptor binding assays were performed using membranes from either PC12 cells stably expressing the cloned mouse K receptor, CHO-DG44 cells stably expressing the mouse 8 receptor, or COS-7 cells transiently expressing the rat μ receptor 48-72 hours after transfection as previously described (4,10). For radioligand binding assays, cells were harvested in 50 mM Tris-HCl (pH 7.8) containing 1 mM ethylene glycol bis(β-aminoethyl ether)-N,N′-tetraacctic acid, 5 mM MgCl₂, 10 μg/ml leupeptin, 10 μg/ml pepstatin 200 μg/ml bacitracin and 0.5 μg/ml aprotinin (buffer 1) and centrifuged at 24,000 K g for 7 min at 4° C. The pellet was homogenized in buffer 1 using a Polytron (Brinkmann, setting 2.5 30 sec). The Homogenate was then centrifuged at 48,000 κ g for 20 min at 4° C. The pellet was homogenized in buffer 1 and this membrane preparation was used for the radioligand binding studies. […] The binding reaction was terminated by the addition of ice-cold 50 mM Tris-HCl buffer (pH 7.8) and rapid filtration over Whatman GF/B glass fiber filters which were pretreated with 0.5% polyethyleneimine/0.1% BSA for at least 1 hour. The filters were then washed with 12 mL of ice-cold Tris-HCl buffer and the bound radioactivity counted in a scintillation counter. Data from radioligand binding studies were used to generate inhibition curves.

[2] = target: T3, mouse delta opioid receptor (mORD1) (mouse, UniProt P32300 1-372); assay: competition vs [3H]naltrindole, CHO-DG44 membranes
T3 construct: Assayed in membranes of transfected COS-1, CHO-DG44 or COS-7 cells; also called msl-2; δ receptor
Method: as §1

[3] = target: T4, mouse kappa opioid receptor (mORK1) (mouse, UniProt P33534 1-380); assay: radioligand binding, COS-1 membranes
T4 construct: Assayed in membranes of transfected COS-1, PC12 or COS-7 cells; also called msl-1; κ receptor

[4] = target: T3, mouse delta opioid receptor (mORD1); assay: radioligand binding, COS-1 membranes
[5] = target: cloned human µ opioid receptor (human, UniProt P35372 1-400); assay: competition vs [3H]DAMGO, COS-7 membranes
cloned human µ opioid receptor, sequence (P35372 whole entry): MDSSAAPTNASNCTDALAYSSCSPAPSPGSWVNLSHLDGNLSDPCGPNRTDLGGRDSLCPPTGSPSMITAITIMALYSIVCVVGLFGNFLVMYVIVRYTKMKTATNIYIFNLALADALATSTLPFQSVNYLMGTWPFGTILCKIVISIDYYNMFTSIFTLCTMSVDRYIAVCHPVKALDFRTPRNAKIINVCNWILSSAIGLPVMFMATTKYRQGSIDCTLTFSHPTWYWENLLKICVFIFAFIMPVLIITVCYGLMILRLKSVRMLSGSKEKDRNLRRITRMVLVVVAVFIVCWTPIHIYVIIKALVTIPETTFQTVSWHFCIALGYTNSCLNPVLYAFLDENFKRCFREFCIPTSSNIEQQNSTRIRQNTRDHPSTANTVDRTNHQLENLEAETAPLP
Method: For radioligand binding assays, cells were harvested in 50 mM Tris-HCl (pH 7.8) containing 1 mM ethylene glycol bis(b-aminoethyl ether)-N,N′-tetraacetic acid, 5 mM MgCl₂, 10 mg/ml leupeptin, 10 mg/ml pepstatin, 200 mg/ml bacitracin and 0.5 mg/ml aprotinin (buffer 1) and centrifuged at 24,000×g for 7 min at 4° C. The pellet was homogenized in buffer 1 using a Polytron (Brinkmann, setting 2.5, 30 sec). The homogenate was then centrifuged at 48,000×g for 20 min at 4° C. The pellet was homogenized in buffer 1 and this membrane preparation was used for the radioligand binding studies. […] The binding reaction was terminated by the addition of ice-cold 50 mM Tris-HCl buffer (pH 7.8) and rapid filtration over Whatman GF/B glass fiber filters which were pretreated with 0.5% polyethyleneimine/0.1% BSA for at least 1 hour. The filters were then washed with 12 mL of ice-cold Tris-HCl buffer and the bound radioactivity counted in a scintillation counter. Data from radioligand binding 10 studies were used to generate inhibition curves.

[6] = target: T4, mouse kappa opioid receptor (mORK1); assay: competition vs [3H]U-69,593, PC12 membranes
Method: as §1

Row | Binder | Ki (rat µ opioid receptor) | Ki [2] | Ki [5] | Ki [6] | other results
1 | B1 | – | – | – | – | IC50 [1]: 40 nM
2 | B2 | 1 nM | 1 nM | – | – | –
3 | B3 | – | – | – | – | binding result [3]: no binding; binding result [4]: no binding
4 | B4 | – | – | 3.9 nM | – | –
5 | B5 | > 1000 nM | > 1000 nM | > 1000 nM | > 1000 nM | –
6 | B6 | – | – | – | > 1000 nM | –
